Measured values reported in US20200207847A1 (SINGAPORE HEALTH SERVICES PTE, published 2020).
One block for each binder: values may come before it.

Experiments:
[1] = target: T1, human IL-11Rα, FLAG-tagged, expressed at the surface of transiently transfected cells (human, UniProt Q14626 23-422); experiment: flow cytometry of subcloned hybridoma supernatant on cells transfected with FLAG-tagged human IL-11Rα (sheet header: 'pB1-IL11-hum.FL', 'flow cytometry (Attunes)'; text: iQue mix-and-measure, anti-mouse IgG secondary)
T1 construct: whole, on cells; also called IL-11Rα expressing HEK cells; FLAG-tagged human IL-11Rα; not shown: tag
T1 sequence (looked up): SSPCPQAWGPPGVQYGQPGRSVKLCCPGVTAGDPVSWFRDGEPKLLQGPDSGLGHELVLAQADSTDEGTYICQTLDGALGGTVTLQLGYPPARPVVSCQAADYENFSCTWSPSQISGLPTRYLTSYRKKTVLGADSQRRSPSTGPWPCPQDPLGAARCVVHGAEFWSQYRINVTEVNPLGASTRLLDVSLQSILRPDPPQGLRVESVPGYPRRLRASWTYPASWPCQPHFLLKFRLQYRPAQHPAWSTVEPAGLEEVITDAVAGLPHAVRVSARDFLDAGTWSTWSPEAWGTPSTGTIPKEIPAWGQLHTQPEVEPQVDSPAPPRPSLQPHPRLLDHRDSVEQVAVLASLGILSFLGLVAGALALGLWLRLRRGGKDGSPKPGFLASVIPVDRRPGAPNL
Description: The mouse hybridomas producing anti-human IL-11Rα antibodies were sub-cloned, and cell culture supernatant from the subcloned hybridomas was analysed by “mix-and-measure” iQue assay for (i) ability to bind to human IL-11Rα, and (ii) cross reactivity for antigen other than IL-11Rα.
(§1) Briefly, labelled control cells (not expressing IL-11Rα at the cell surface) and unlabelled target cells expressing human IL-11Rα at their surface (following transient transfection with a plasmid encoding a FLAG-tagged human IL-11Rα) were mixed together with the cell culture supernatant (containing mouse-anti-IL-11Rα antibodies) and secondary detection antibodies (fluorescently-labelled anti-mouse IgG antibody).
(§2) The cells were then analysed using the HTFC Screening System (iQue) for the two labels (i.e. the cell label and the label on the secondary antibody). Detection of the secondary antibody on the unlabelled, IL-11Rα expressing cells indicated ability of the mouse-anti-IL-11Rα antibodies to bind to IL-11Rα. Detection of the secondary antibody on the labelled, control cells indicated cross-reactivity of the mouse-anti-IL-11Rα antibodies for target other than IL-11Rα.

[2] = target: T1, human IL-11Rα, FLAG-tagged, expressed …; experiment: same assay; percent relative to the positive control anti-FLAG antibody (100%)
Description: as §1, §2
As a positive control condition, labelled and unlabelled cells were incubated with a mouse anti-FLAG tag antibody as the primary antibody.

GMFI [1]: 8780
% positive [2]: 28%
B1: BSO-5E5 (antibody, V domains shown)
VH: DVQLQESGPGLVKPSQSLSLTCSVTGYSITSDYYWNWIRQFPGNKLEWMGYISYDSSNNYNPSLKNRISITRDTSKNQFFLKLNSVTTEDTATYYCASVGYYYVSDWYFDVWGTGTTVTVSS
VL: DIVMSQSPSSLPVSVGENVTMSCKSSQSLLYGSNQKNYLAWYQQKPGQSPKLLIYWASTRESGVPDRFTGSGSGTDFTLTISSVKAEDLAVYFCQQYYSYPRTFGGGTKLEIK
notes: Mouse monoclonal from hybridoma; also called RA5

GMFI [1]: 9300
% positive [2]: 30%
B2: BSO-4G3 (antibody, V domains shown)
VH: EVQLVESGGGLVKPGGSLKLSCAASGFTFSTYAMSWVRQTPEKRLEWVAAIKSNGGSTYYPDTVKDRFTISRDNAKNTLYLQMSSLRPEDTALYYCAHGLLFAHWGQGTLVTVSA
VL: DIVLTQSPASLAVSLGQSVTISCRASESVEYSGTTLMQWYQQKPGQPPKLLIYGASNVESGVPARFSGSGSGTDFSLNIHPVEEDDIAMYFCQQSRKVPYTFGSGTKLEIK
notes: Mouse monoclonal from hybridoma

GMFI [1]: 13100
% positive [2]: 42%
B3: BSO-10D11 (antibody, V domains shown)
VH: QVQLQQSGTELVRPGTSVKMSCKAAGYTFTDYWIGWIKQRPGHGLEWIGDIFPGGDYTKCSERFKGKAKLTADTSSSTAYMQLSRLTSEDSAIYYCARRSTTIRFGAMDNWGQGTSVTVSS
VL: DIQMTQSPSSLSASLGERVSLTCRASQEISAYLSWLQQKPDGTIKRLIYSTSTLDSGVPKRFSGSRSGSDYSLTISSLESEDFADYFCLQYASSPLTFGAGTKLELK
notes: as for B2

GMFI [1]: 34800
% positive [2]: 111%
B4: BSO-9A7 (antibody, V domains shown)
VH: QVQLQQPGAELVRPGSSVKLSCKASGYTFTNYWMHWLKQRPVQGLEWIGNIGPSDSKTHYNQKFKDKATLTVDKSSSTAYMQLNSLTSEDSAVYYCARGDYVLFTYWGQGTLVTVSA
VL: DIVLTQSPATLSMTPGDSVSLSCRASQSISNNLHWYQQKSHESPRLLIKYASQSISGIPSRFSGSGSGTDFTLSFNSVETEDFGVYFCQQRYSWPLTFGAGTKLEMK
notes: Mouse monoclonal from hybridoma; also called RA7

GMFI [1]: 18600
% positive [2]: 59%
B5: BSO-7G9 (antibody, V domains shown)
VH: QVQLQQPGAELVKPGASVRLSCKASGYTFTSYWMHWVKQRPGQGLEWIGMIHPNSGYTNYNEKFKIKATLTVDKSSSTAHMQLSSLTSEDSAVYHCARGGYDGSYGPWFAYWGQGTLVTVSA
VL: DVVMTQTPLSLPVSLGDQASISCRSSQSLVHSNGNTYLHWYLQKPGQSPKLLIYKVSNRFSGVPDRFSGSGSGTDFTLKISRVEAEDLGVYFCSQSTHVPLTFGAGTKLELK
notes: as for B2

GMFI [1]: 10900
% positive [2]: 35%
B6: BSO-13B10 (antibody, V domains shown)
VH: QVQLKESGPGLVAPSQSLSITCTVSGFSLTSFSISWVRQPPGKGLEWLGGIWTGGGTNYNSALKPRLSISKDNSKSQVFLKMNSLQTDDTARYYCARNSNYPSGFAYWGQGTLVTVSA
VL: DIVMTQSQKFMSTSVGDRVSVTCKASQNVGSNVAWYQQKAGQSPKALIYSASYRYSGVPDRFTGSGSGTDFTLTISNVQSEDLAEYFCQQYNSYPLTFGAGTKLELK
notes: Mouse monoclonal from hybridoma; also called RA9

GMFI [1]: 9540
% positive [2]: 30%
B7: BSO-2E5 (antibody, V domains shown)
VH: QGQVQQSGAELVKPGASVKLSCKTSGFTFSTSYISWLKQKPRQSLEWIAWIYAGTGSTSYNQKFTGKAQLTVDTSSSTAYMQLSSLTSEDSAIYYCARHWAYWGQGTLVTVSA
VL: DIQMTQSPSSLSASLGERVSLTCRASQDIGSSLNWLQQEPDGTIKRLIYATASLESGVPKRFSGSRSGSDYSLTISRLESEDFVDYYCQQYASSPPTFGAGTKLELK
notes: Mouse monoclonal from hybridoma; also called RA3
